Values of other authors, collected in publication PMC8308721, “An Effective and Safe Enkephalin Analog for Antinociception” (Pharmaceutics, 2021).
pKd: −log10 of the molar value.

Molecular target: [3H]DADLE ([D-Ala2, D-Leu5]-enkephalin)
Assay: radioligand

Delta opioid receptor (from UniProt P41143)
pKd: 9.22
